Laboratory results: the RNAGym collection of RNA variant scans (doi:10.1073/pnas.2313332121)
Variants at the floor of the assay were thinned out.

B1: TPR 5TU (parent)
chain: GGAUCUUCUCGAUCUAACAAAAAAGACAAAUCUGCCACAAAGCUUGAGAGCAUCUUCGGAUGCAGAGGCGGCAGCCUUCGGUGGCGCGAUAGCGCCAACGUUCUCAACUAUGACACGCAAAACGCGUGCUCCGUUGAAUGGAGUUUAUCAUG

Variants of: B1
Test: polymerase ribozyme fitness, log enrichment relative to wild type (log ratio); higher = more active; in vitro selection for triplet polymerase activity
Method in brief: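 One round of in vitro selection, in triplicate, was applied to PCR-built, transcribed mutant libraries of each subunit of a heterodimeric triplet polymerase ribozyme. The steps were annealing with a biotinylated primer, partner subunit and triplets, incubation frozen at −7 °C, gel excision of extended constructs, streptavidin-bead capture and RT-PCR. Fitness is the logarithm, base 2, of genotype enrichment over wild-type enrichment from inverse-variance-weighted replicate averages of Illumina-sequenced inputs and outputs, keeping genotypes with ≥10 input reads and ≥1 read per output.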

Variant	polymerase ribozyme fitness (log ratio)
G11C A47U C85U	-2.5
C10U C14G A39C A91G C95G C99U C105G A137G	≤ -4.2
G11C A23G A91G C95U A121G	-3.82
G11A A39U A40C G100C	≤ -4.2
C10G U33A C69A C96G	≤ -4.2
G11C A22U A30G A37C A91G C93A A98C C118G	≤ -4.2
C10U A30U A49C C87U A89G C95G U104C C116U A119U G136C	≤ -4.2
C10G U33G G42C G50U G74C	≤ -4.2
G11A C125U U139G	-2.67
G11C C116G	-0.794
G11C A66U C96A C108G	≤ -4.2
G11C A52G G84A G133C G141A	≤ -4.2
C10U G42C C69A C95G A142G A150G	≤ -4.2
G11U C93U A119C C149U	-3.06
C10U G74C G88C A110G	≤ -4.2
G11A A37C U56G G83A U145G	-3.73
G11U A19U C32U U33C G74A C85U G141U C149A	≤ -4.2
C10U C32U G68U G74A U78A G92A C125A G140U U145G	≤ -4.2
C10U C14U A19C U55A G59U A97U C105A A115U G141U U148C	≤ -4.2
G11U A47G U53A	-2.54
G11C A91U	-4.11
G11C A20U G86C C99G G136C U145G A147C	≤ -4.2
G11C A12U C14A A28G A52C G62C U78A G112C	≤ -4.2
C10U A29U G92A C99A U145C	≤ -4.2

Variant	polymerase ribozyme fitness (log ratio)
C10G U13A A23U C32A A41G G71C C87U C105U A115U	≤ -4.2
C10U G50U C95U	-3.16
G11A C35U C51U U61G C63U A64C C85G U90G G140A	≤ -4.2
C10G U53C C93U A107G	≤ -4.2
G11A C32U G71A A137G A138G	≤ -4.2
G11U C57G A119U A121G C149U	-2.88
G11U G46A C85U	-2.44
C10U U13G C35U G50U G59C A60U C85A G94C G141A	≤ -4.2
G11C C63U C85U G86U C114U	≤ -4.2
G11A C57A	-1.44
G11A A23U A39U U53G C54U C93U A122U A142G	≤ -4.2
G11C G42A G88C U102C G126U	≤ -4.2
C10U U109G A142C C149A	≤ -4.2
G11C A17U C79G G86U U101G C125U G152A	≤ -4.2
G11C C38U C85G U135C	≤ -4.2
G11A A60G A106G	-0.626
G11C A29G A40U C76U C87U	≤ -4.2
C10U A40G C105G	≤ -4.2
G11A A21U C51U U53A U55G C57U C96A A110C	≤ -4.2
C10U G11U A29C U44G U55A G68A G71U G80A C93A A98U A138C	≤ -4.2
G11A A21C A24C C43U C85A U111C	≤ -4.2
G11C G62A C87G	≤ -4.2
G11U C103G C123G	-2.44
C10U A47U G59C A60G G62A A110U G141C U145A U148A	≤ -4.2

Variant	polymerase ribozyme fitness (log ratio)
G11C A47C U55A G81A C87G A120U U144A	≤ -4.2
G11A C51U U55A U56G A142C	-3.56
C10U A21G A22G A40G C79A C85G A138U	≤ -4.2
C10G U13C G70A U111G U148A	≤ -4.2
G11U C38A G83U U135C C149G	≤ -4.2
C10G G94A	-3.44
C10U A107G	≤ -4.2
G11A G50U U82C G86A C116A	-3.47
C10U C38U G80A G94C C125A G143A	≤ -4.2
C10U U55A G84U	-4.1
G11C G46C G59C G92U	-3.55
A12C A16G U55A	-2.45
G11A A16U A24U C85A A142C	≤ -4.2
G11A U15G G46A A47G A60G G92C C96A	≤ -4.2
G11U A17G C57U C63U G81A U82G	-1.64
C10U G11U A30U C76A A119U A120C A137U	≤ -4.2
G11U C51U A113U C132A U139G U146A	≤ -4.2
G11U U55G A60G G67A C93U	≤ -4.2
G11U C87G	-4.09
G11A A21G A23C C54U G70C C76A G83U	≤ -4.2
C10U C123U G141C	-4.03
C10U U13G U45A G46A G58C C63U G141U	≤ -4.2
C10U A52C C87U G88A A122U C123G	≤ -4.2
G11U C14G G34U G84U C125G C149G	≤ -4.2

Variant	polymerase ribozyme fitness (log ratio)
G11C U15G A20C A28U C85U G140U U145G	≤ -4.2
C10U G94A U148G	≤ -4.2
C10U A16C A39C G50U U56A G67C G94C C108U	≤ -4.2
C10U G42U A64U C93A A106U C123U G140A	≤ -4.2
G11C A40C G84A A97U	-3.7
G11C G42U U55G C76U	≤ -4.2
G11A U15G A17C A20U U33C A64G C93G A110G A147U	≤ -4.2
G11C C57U C95U U127A C149A	≤ -4.2
A12C A19U U31G A41C C93A G141A	-3.98
A12C A16U U61A C125A	-3.45
G11U A23U	≤ -4.2
G11U U33G A66C G84A G128U A137C U145A	≤ -4.2
G11A A29U U82G C87A G94C C96U A98G A122C G141A	≤ -4.2
C10U A19U A23U C57U G58C C75U U78G C95U C105U	≤ -4.2
C10G U44G U56G C57U A66C C87U A106G A142U	≤ -4.2
C10G U44G A49C A52C A64C G74C U104G A122G G141A	≤ -4.2
G11U G48C C79A C93G A119G G141U	≤ -4.2
A12C A20G G25A A30G U44A A89G U145G	≤ -4.2
G11C A115C	-2.86
C10U C69U A147C U148G C149G	≤ -4.2
C10U A16G C43G U44G U77A U82A A120C	≤ -4.2
G11C C36U U78C C85G A120C C123A G124A U151C	≤ -4.2
G11A G58U C96U	-1.58
G11A G34C A47G C103G A121U	≤ -4.2

Variant	polymerase ribozyme fitness (log ratio)
C10U A41U G92C U139G	-4.06
C10U A16G G84U G140U	≤ -4.2
G11U C18G G58C A60C U78C G83A C96U A115C	≤ -4.2
C10U G70U C87A C118U	≤ -4.2
G11C G59A A73G U82G	-2.2
C10U A22C C36A A49C U53C C57G G58A G86U C93U G117U	≤ -4.2
G11A A113U	-2.69
C10U C75U G84A U145A	-4.08
G11C G74A C76U C93G A113G U145A	≤ -4.2
C10G U13C C85G U109G A115U G140U	≤ -4.2
C10U A17U A41C G50C G84A	≤ -4.2
G11U G86C	-3.55
G11A C54A	-2.47
G11C C14U A37C C93U	≤ -4.2
C10G U13G C87U C125U	≤ -4.2
C10G U53A G83U A91U A97G C103A	≤ -4.2
C10U A41G A64G G65C A91C	≤ -4.2
A12C A19C A122G U146C	-1.62
C10U C116U A147C	-3.39
G11A G67A C79G C87A C114G A137G	≤ -4.2
G11U G68U A120U C125U	≤ -4.2
G11A U15G A107G G141C U144C U145A G152A	≤ -4.2
A12C A16G A41C A121U	-1.69
G11A A64G G88U U101G C103G U146G	≤ -4.2

Variant	polymerase ribozyme fitness (log ratio)
G11U A37U C87A	-4.14
C10G G92U	-3.24
C10U C93A	-3.86
G11A A91G A138U	≤ -4.2
C10U C51G U53A U90G	≤ -4.2
C10U G84A	-3.34
G11A A23U U53A G92U C108U A142U	≤ -4.2
C10U U13G C27A U33A C75G G88A A122U	≤ -4.2
G11C C14G A26U C105G U134G	≤ -4.2
C10G U78G C85G U109C G140U	≤ -4.2
G11A A26C G68U C75U A147C	≤ -4.2
G11A G141U	0.246
C10U A22U A29G U53G C75A G83A A106U A150C	≤ -4.2
G11A C14G A30U U44A U45A G92U	≤ -4.2
C10U U15C A29U C95U	≤ -4.2
G11A A39U A97C	-3.26
C10U C118U	-2.81
G11A A17G U31A U53G C54U A64G	≤ -4.2
G11C A40G G84A A97C G126A	≤ -4.2
G11U C27U A29C C75U G83C G126U	≤ -4.2
C10U C14G A28U G58C U61C G70C C76G C96U A138G G140U C149G	≤ -4.2
C10U G50A U55G A91G G143C	≤ -4.2
G11A A40C A49C G74C C85A C95G G100C A147U	≤ -4.2
G11C A39U A73U C96U	≤ -4.2

Variant	polymerase ribozyme fitness (log ratio)
C10U C51G A52U C87A C123U G141C	≤ -4.2
C10U A37C C75U C95G	≤ -4.2
C10U A24U U33G A41G U56A C85U A91C	≤ -4.2
G11C U61A G67A G94C U145G A147U	≤ -4.2
C10U A17G A52C C75U C99U U102C U127A U135A	≤ -4.2
C10U G92A G141C	-3.99
G11U G25C G71C C95G C103A C116G	≤ -4.2
G11C C36U C57A G100A	≤ -4.2
C10G U56A C57U C69U C95A C99U C108U A121U A147G	≤ -4.2
G11U C76A G83U C85A A137G	≤ -4.2
G11A C69U C87U G92C A150G	-2.89
C10U A26U C35U C54U A60C C95A C99U C103G A142U	≤ -4.2
G11C C63U C79U G86C	≤ -4.2
C10U G124C U139G U148C	≤ -4.2
C10U C36U C63A C118U	≤ -4.2
G11A C27A A37C G59C G83A G86A G92A U102G G117U	≤ -4.2
C10U C54A G88U A115G	≤ -4.2
C10G U109C A137C	≤ -4.2
G11U A52U	-2.33
G11C C114U U139A	≤ -4.2
G11C C14G C93U C125A	≤ -4.2
G11A U55A U101G	-1.01
C10U A16C A23U G62C A64G G83C U102G C114U U127G	≤ -4.2
